Assay results from US20140294863A1, “SERUM ALBUMIN BINDING PEPTIDES FOR TUMOR TARGETING” (GENENTECH, INC., priority 2002, published 2014).
Marks after values point to notes of the source that are not given here. Where a SMILES comes first, the peptide text is derived from it. Bridges are numbered along the chain shown (N, C = ends). Where no end group is shown, it is not given here.

Tests used:
rabbit albumin [1] = biological target: T1, rabbit albumin (Oryctolagus cuniculus, UniProt P49065); test: Direct Binding ELISA, AB.Fab variants on immobilized rabbit albumin; set-up: purchased Sigma; conditions: average and SD of at least 3 determinations
T1 sequence (P49065 25-608): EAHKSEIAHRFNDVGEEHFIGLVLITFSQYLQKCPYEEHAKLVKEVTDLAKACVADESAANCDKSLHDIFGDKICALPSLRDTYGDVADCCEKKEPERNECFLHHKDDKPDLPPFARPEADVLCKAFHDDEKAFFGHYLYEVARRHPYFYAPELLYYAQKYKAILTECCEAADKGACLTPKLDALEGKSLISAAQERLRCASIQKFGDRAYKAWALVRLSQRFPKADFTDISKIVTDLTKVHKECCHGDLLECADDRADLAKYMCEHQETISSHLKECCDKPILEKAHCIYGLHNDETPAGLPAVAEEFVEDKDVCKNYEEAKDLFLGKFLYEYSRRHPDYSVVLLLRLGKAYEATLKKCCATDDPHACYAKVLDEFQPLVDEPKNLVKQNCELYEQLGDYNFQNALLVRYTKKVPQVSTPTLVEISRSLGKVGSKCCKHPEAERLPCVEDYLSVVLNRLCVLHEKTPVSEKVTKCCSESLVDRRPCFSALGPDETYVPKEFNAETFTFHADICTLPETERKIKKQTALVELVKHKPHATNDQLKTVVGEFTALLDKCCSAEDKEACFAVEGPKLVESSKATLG
Experimental: (§1) Mouse, rat, or rabbit albumin (Sigma, St. Louis, Mo.) were immobilized onto NUNC Maxisorp™ 96-well plates at 2 ug/ml overnight at 4° C. […] AB.Fab variants were serially diluted in binding buffer and added at 100 μl per well to the immobilized albumin for 30 minutes at 25° C. Unbound AB.Fab variant was removed by washing wells with 0.05% PBS/Tween® 20 and bound AB.Fab variant was detected with goat anti-human Fab′2-HRP for 1 hour at 25° C. Bound HRP was measured with a solution of tetramethylbenzidine (TMB)/H202. After 15 minutes, the reaction was quenched by the addition of 1M phosphoric acid.
(§2) Initially we explored binding of the AB.Fab variants to immobilized albumin using a Direct Binding ELISA.

rat albumin [2] = biological target: T2, rat albumin (Rattus norvegicus, UniProt P02770); test: Direct Binding ELISA, AB.Fab variants on immobilized rat albumin; set-up: purchased Sigma; conditions: average and SD of at least 3 determinations
T2 sequence (P02770 25-608): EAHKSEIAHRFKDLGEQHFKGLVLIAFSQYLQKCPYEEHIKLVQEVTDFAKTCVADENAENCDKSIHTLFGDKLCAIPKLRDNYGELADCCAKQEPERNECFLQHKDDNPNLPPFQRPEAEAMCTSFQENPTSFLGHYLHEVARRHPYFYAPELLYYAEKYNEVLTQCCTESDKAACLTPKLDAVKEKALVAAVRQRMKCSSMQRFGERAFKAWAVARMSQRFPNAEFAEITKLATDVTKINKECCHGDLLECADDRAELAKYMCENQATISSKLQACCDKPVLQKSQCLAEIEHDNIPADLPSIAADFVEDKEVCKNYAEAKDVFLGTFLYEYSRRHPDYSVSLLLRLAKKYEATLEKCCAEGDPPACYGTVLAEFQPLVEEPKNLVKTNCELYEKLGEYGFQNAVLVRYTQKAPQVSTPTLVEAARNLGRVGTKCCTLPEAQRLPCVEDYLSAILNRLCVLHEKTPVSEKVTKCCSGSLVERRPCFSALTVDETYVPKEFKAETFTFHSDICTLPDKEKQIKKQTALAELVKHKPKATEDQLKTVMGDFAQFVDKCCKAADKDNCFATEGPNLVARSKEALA
Experimental: as §1, §2

rabbit albumin [3] = biological target: T1, rabbit albumin; test: SA08b binding assay (peptide competition ELISA), rabbit albumin; set-up: purchased Sigma; conditions: for effect on SA08b peptide binding to rabbit albumin: concentrations of up to 100 μM, data not shown; for improvement in IC50 relative to core sequence of about 10 amino acids: rabbit albumin
Source text: (§3) Plates were blocked as described above.
(§4) Peptides corresponding to identified phage sequences were synthesized and their affinity for rat, rabbit or mouse albumin measured using the SA08b binding assay.

rat albumin [4] = biological target: T2, rat albumin; test: SA08b binding assay (peptide competition ELISA), rat albumin; set-up: purchased Sigma; conditions: concentrations of up to 100 μM; data not shown
Source text: as §3, §4

[5] = Pharmacokinetics of AB.Fab variants in rats (HER2 Binding ELISA); format: in vivo; conditions: Rat; group mean
Experimental: (§5) All pharmacokinetic (PK) studies were conducted according to protocols approved by the Institutional Animal Care and Use Committee at Genentech, Inc. Sprague Dawley rats were supplied by Charles River Laboratories (Hollister, Calif. USA). New Zealand White (NWZ) rabbits were supplied by Myrtle's Rabbitry (Thompson Station, Tenn. USA). BALB-c mice were supplied by Charles River (Hollister, Calif. USA).
At pre-dose, and over the course of 7 days post-dose, plasma was collected via a cannula inserted in the jugular vein.
(§6) Briefly, samples were added to microtiter wells coated with HER2ecd and incubated for 2 hours at room temperature. The wells were washed, and goat anti-huFab-HRP was added and incubated for 1 hour at room temperature. Unbound HRP was removed by washing and enzyme substrate was added to detect bound HRP. […] Concentrations of AB.Fab were extrapolated by comparison to a standard curve of the dosed molecule.
(§7) For rats and rabbits, concentration versus time profiles for each animal were fit to a two compartment model using, iterative re-weighting to estimate the pharmacokinetic parameters of Area Under the Concentration-Time Curve (AUC), Clearance (CL), Beta Half-Life (t1/2β), Volume of Distribution of the Central Compartment (V1), and Steady State Volume of Distribution (Vss) using WinNonlin® software (Version 3.2, Pharsight, Inc.; Mountain View, Calif.) and group means were calculated.

[6] = Pharmacokinetics of AB.Fab variants in mice (HER2 Binding ELISA); format: in vivo; conditions: Mouse, group mean profile; for t1/2β: 4D5-H8 fit to one-compartment model (one half life estimate)
Experimental: as §5
Over the course of 7 days serum was collected in 3 mice per time point by retro-orbital bleed or cardiac stick.
as §6
In mice, a group mean serum concentration versus time profile was determined, producing one estimate for pharmacokinetic parameters for each AB.Fab dosing group. […] AB.Fab variant 4D5-H8 was fit to a one compartment model and estimates for the PK parameters of AUC, CL, Half-Life (t1/2) and V1 were determined using WinNonlin® software (Pharsight, Inc., supra).

[7] = Pharmacokinetics of AB.Fab variants in rabbits (HER2 Binding ELISA); format: in vivo; conditions: Rabbit; group mean
Experimental: as §5, §6, §7

rat albumin [8] = biological target: T2, rat albumin; test: Solution Binding ELISA, AB.Fab variants with soluble rat albumin; set-up: purchased Sigma; conditions: Rat albumin, as listed in Table 15; read-out: Kd for Albumin
rabbit albumin [9] = biological target: T1, rabbit albumin; test: Phage ELISA, phage clones on immobilized rabbit albumin; format: binding; set-up: purchased Sigma; conditions: for phage binding to rabbit albumin at pH 2.9: data not shown
Experimental: (§8) Phage clones (approximately 10^11 phage) were added to Maxisorp plates coated with rat, rabbit, or human albumin or with mouse, bovine, or rhesus albumin (Sigma), as described above. The microtiter plate was washed with wash buffer and bound phage were detected following incubation with HRP/Anti-M13 Conjugate (Amerisham Pharmacia Biotech, Piscataway, N.J.).

human albumin = biological target: T3, human albumin (Homo sapiens, UniProt P02768); test: Phage ELISA, phage clones on immobilized human albumin; format: binding
T3 construct: purchased Sigma
Experimental: as §8

albumin = test: SA08b binding assay / competition ELISA, albumin species not stated; conditions: albumin species not given

Compound: 4D5-H4: AB.Fab variant of Fab4D5 with shortened albumin-binding peptide on heavy chain, no GGGS linker (Table 12) (DICLPRWGCLWED; disulfide 3-9 (inferred); also: part of Fab heavy chain)
- EC50 (rabbit albumin [1]): 500 ± 50 nM

Compound: 4D5-H8: AB.Fab variant of Fab4D5 with shortened albumin-binding peptide on heavy chain, no GGGS linker (Table 12) (IEDICLPRWGCLWE; disulfide 5-11 (inferred); also: part of Fab heavy chain)
- EC50 (rabbit albumin [1]): 500 ± 50 nM

Compound: 4D5-H10: AB.Fab variant made by deletion in 4D5-H4 (Table 12) (DICLPRWGCLW; disulfide 3-9 (inferred); also: part of Fab heavy chain)
- EC50 (rabbit albumin [1]): > 2000 nM
- EC50 (rat albumin [2]): 8 ± 0.003 nM

Compound: [Cl][Cu][Cl] [CuCl2, reference compound]
- effect on SA08b peptide binding to rabbit albumin (rabbit albumin [3]): no effect
- effect on SA08b peptide binding to rat albumin (rat albumin [4]): no effect

Compound: N[C@@H](Cc1c[nH]c2ccccc12)C(=O)O [L-tryptophan, reference compound]
- effect on SA08b peptide binding to rabbit albumin (rabbit albumin [3]): no effect
- effect on SA08b peptide binding to rat albumin (rat albumin [4]): no effect

Compound: CC[C@H](C)[C@H](NC(=O)[C@H](CC(C)C)NC(=O)[C@H](CCCNC(=N)N)NC(C)=O)C(=O)N[C@@H](CCC(=O)O)C(=O)N[C@@H](CC(=O)O)C(=O)N[C@H](C(=O)N[C@H]1CSSC[C@@H](C(=O)N[C@@H](CC(C)C)C(=O)N[C@@H](Cc2c[nH]c3ccccc23)C(=O)N[C@@H](CCC(=O)O)C(=O)N[C@@H](CC(=O)O)C(N)=O)NC(=O)CNC(=O)[C@H](Cc2c[nH]c3ccccc23)NC(=O)[C@H](CCCNC(=N)N)NC(=O)[C@@H]2CCCN2C(=O)[C@H](CC(C)C)NC1=O)[C@@H](C)CC [SA22] (Ac-RLIEDICLPRWGCLWED-NH2; disulfide 7-13)
- improvement in IC50 relative to core sequence of about 10 amino acids (rabbit albumin [3]): 60 fold

Compound: CC[C@H](C)[C@H](NC(=O)[C@H](CC(=O)O)NC(C)=O)C(=O)N[C@H]1CSSC[C@@H](C(=O)N[C@@H](CC(C)C)C(=O)N[C@@H](Cc2c[nH]c3ccccc23)C(=O)N[C@@H](CCC(=O)O)C(=O)N[C@@H](CC(=O)O)C(N)=O)NC(=O)CNC(=O)[C@H](Cc2c[nH]c3ccccc23)NC(=O)[C@H](CCCNC(=N)N)NC(=O)[C@@H]2CCCN2C(=O)[C@H](CC(C)C)NC1=O [SA26, Ac DICLPRWGCLWED NH2] (Ac-DICLPRWGCLWED-NH2; disulfide 3-9)
- improvement in IC50 relative to core sequence of about 10 amino acids (rabbit albumin [3]): about 8.6 fold

Compound: CC[C@H](C)[C@H](NC(=O)[C@H](CC(C)C)NC(=O)[C@H](CCCNC(=N)N)NC(C)=O)C(=O)N[C@@H](CCC(=O)O)C(=O)N[C@@H](CC(=O)O)C(=O)N[C@H](C(=O)N[C@H]1CSSC[C@@H](C(=O)N[C@@H](CC(C)C)C(N)=O)NC(=O)CNC(=O)[C@H](Cc2c[nH]c3ccccc23)NC(=O)[C@H](CCCNC(=N)N)NC(=O)[C@@H]2CCCN2C(=O)[C@H](CC(C)C)NC1=O)[C@@H](C)CC [SA33] (Ac-RLIEDICLPRWGCL-NH2; disulfide 7-13)
- improvement in IC50 relative to core sequence of about 10 amino acids (rabbit albumin [3]): approximately 6 fold

Compound: CC[C@H](C)[C@H](NC(=O)[C@H](CC(C)C)NC(=O)[C@H](CCCNC(=N)N)NC(C)=O)C(=O)N[C@@H](CCC(=O)O)C(=O)N[C@@H](CC(=O)O)C(=O)N[C@H](C(=O)N[C@H]1CSSC[C@@H](C(N)=O)NC(=O)CNC(=O)[C@H](Cc2c[nH]c3ccccc23)NC(=O)[C@H](CCCNC(=N)N)NC(=O)[C@@H]2CCCN2C(=O)[C@H](CC(C)C)NC1=O)[C@@H](C)CC [SA35] (Ac-RLIEDICLPRWGC-NH2; disulfide 7-13)
- IC50 (rabbit albumin [3]): > 250000 nM

Compound: CN(C)c1cccc2c(S(=O)(=O)N(C)CC(=O)O)cccc12 [dansylsarcosine, reference compound]
- effect on SA08b peptide binding to rabbit albumin (rabbit albumin [3]): no effect
- effect on SA08b peptide binding to rat albumin (rat albumin [4]): no effect

Compound: CCCCCCCCCCCCCC(=O)O [myristic acid, reference compound]
- effect on SA08b peptide binding to rabbit albumin (rabbit albumin [3]): no effect
- effect on SA08b peptide binding to rat albumin (rat albumin [4]): no effect

Compound: AB.Fab 4D5-H4 (DICLPRWGCLWED; disulfide 3-9 (inferred); also: part of Fab heavy chain)
- AUC [5]: 1450 ± 146 µg·h/mL
- CL [5]: 3.24 ± 0.352 mL/h/kg
- V1 [5]: 0.0522 ± 0.00421 L/kg
- Vss [5]: 0.076 ± 0.00656 L/kg
- t1/2β [5]: 20.7 ± 1.07 h
- AUC [6]: 2070 µg·h/mL
- CL [6]: 2.41 mL/h/kg
- V1 [6]: 0.0284 L/kg
- Vss [6]: 0.0444 L/kg
- t1/2β [6]: 13.5 h
- AUC [7]: 127 ± 16.5 µg·h/mL
- CL [7]: 3.58 ± 0.496 mL/h/kg
- V1 [7]: 0.0305 ± 0.00167 L/kg
- Vss [7]: 0.0822 ± 0.0102 L/kg
- t1/2β [7]: 28.3 ± 2.88 h

Compound: AB.Fab 4D5-H8 (IEDICLPRWGCLWE; disulfide 5-11 (inferred); also: part of Fab heavy chain)
- AUC [5]: 1890 ± 294 µg·h/mL
- CL [5]: 2.44 ± 0.453 mL/h/kg
- V1 [5]: 0.0458 ± 0.00811 L/kg
- Vss [5]: 0.0859 ± 0.0154 L/kg
- t1/2β [5]: 28.0 ± 1.88 h
- AUC [6]: 2610 µg·h/mL
- CL [6]: 1.91 mL/h/kg
- Vss [6]: 0.0387 L/kg
- t1/2β [6]: 14.0^b hr
- AUC [7]: 232 ± 62.7 µg·h/mL
- CL [7]: 1.99 ± 0.477 mL/h/kg
- V1 [7]: 0.0296 ± 0.00332 L/kg
- Vss [7]: 0.0659 ± 0.0071 L/kg
- t1/2β [7]: 36.2 ± 7.13 h

Compound: AB.Fab 4D5-H10 (DICLPRWGCLW; disulfide 3-9 (inferred); also: part of Fab heavy chain)
- AUC [5]: 541 ± 77.9 µg·h/mL
- CL [5]: 9.21 ± 1.24 mL/h/kg
- V1 [5]: 0.0446 ± 0.00204 L/kg
- Vss [5]: 0.0753 ± 0.0092 L/kg
- t1/2β [5]: 10.9 ± 2.86 h
- AUC [7]: 33.7 ± 3.32 µg·h/mL
- CL [7]: 13.5 ± 1.40 mL/h/kg
- V1 [7]: 0.0368 ± 0.00412 L/kg
- Vss [7]: 0.0987 ± 0.0141 L/kg
- t1/2β [7]: 12.0 ± 2.21 h

Compound: AB.Fab 4D5-H11 (DICLPRWGCL; disulfide 3-9 (inferred); also: part of Fab heavy chain)
- Kd (rat albumin [8]): 2500 nM
- AUC [5]: 57.0 ± 7.39 µg·h/mL
- CL [5]: 80.2 ± 11.8 mL/h/kg
- V1 [5]: 0.0487 ± 0.00225 L/kg
- Vss [5]: 0.0816 ± 0.00576 L/kg
- t1/2β [5]: 4.21 ± 0.151 h
- AUC [7]: 24.6 ± 2.74 µg·h/mL
- CL [7]: 20.6 ± 2.24 mL/h/kg
- V1 [7]: 0.0404 ± 0.00438 L/kg
- Vss [7]: 0.101 ± 0.0317 L/kg
- t1/2β [7]: 11.9 ± 2.61 h

Compound: HSQMEDICLPRWGCLWGDEL [RB-B8]
- phage binding to rabbit albumin at pH 2.9 (rabbit albumin [9]): no binding

Compound: QRHPEDICLPRWGCLWGDDD [RB-H1]
- phage binding to rabbit albumin at pH 2.9 (rabbit albumin [9]): no binding

Compound: QRQMVDFCLPQWGCLWGDGF [RB, phage clone selected on rat SA, ID 35]
- binding to human albumin (human albumin): capable of binding
- binding to rabbit albumin (rabbit albumin [9]; phage ELISA): capable of binding

Compound: linear peptide, identical to SA06, but having both Cys residues altered to Ala: linear peptide, identical to SA06, but having both Cys residues altered to Ala (LEYEDIALPKWGALWGGE)
- IC50 (albumin): > 50000 nM
